# B1: RhLF: Recombinant human lactoferrin, a single chain metal binding glycoprotein; given orally in diluent buffer or topically as 1% gel (protein, UniProt P02788 20-710, looked up)
# Lactotransferrin: GRRRSVQWCAVSQPEATKCFQWQRNMRKVRGPPVSCIKRDSPIQCIQAIAENRADAVTLDGGFIYEAGLAPYKLRPVAAEVYGTERQPRTHYYAVAVVKKGGSFQLNELQGLKSCHTGLRRTAGWNVPIGTLRPFLNWTGPPEPIEAAVARFFSASCVPGADKGQFPNLCRLCAGTGENKCAFSSQEPYFSYSGAFKCLRDGAGDVAFIRESTVFEDLSDEAERDEYELLCPDNTRKPVDKFKDCHLARVPSHAVVARSVNGKEDAIWNLLRQAQEKFGKDKSPKFQLFGSPSGQKDLLFKDSAIGFSRVPPRIDSGLYLGSGYFTAIQNLRKSEEEVAARRARVVWCAVGEQELRKCNQWSGLSEGSVTCSSASTTEDCIALVLKGEADAMSLDGGYVYTAGKCGLVPVLAENYKSQQSSDPDPNCVDRPVEGYLAVAVVRRSDTSLTWNSVKGKKSCHTAVDRTAGWNIPMGLLFNQTGSCKFDEYFSQSCAPGSDPRSNLCALCIGDEQGENKCVPNSNERYYGYTGAFRCLAENAGDVAFVKDVTVLQNTDGNNNEAWAKDLKLADFALLCLDGKRKPVTEARSCHLAMAPNHAVVSRMDKVERLKQVLLHQQAKFGRNGSDCPDKFCLFQSETKNLLFNDNTECLARLHGKTTYEKYLGPQYVAGITNLKKCSTSPLLEACEFLRK
# Assays:
# Type in all cases: in vivo
# [1] = tested on: non-insulin dependent diabetic mellitus (NIDDM) male mice C57BLK/J-m+/Lepr db; experiment: Serum glucose after oral rhLF for 15 days in diabetic db/db mice; details: Day 15 Post (90 min after dosing), fasted 3 h, relative to placebo
# Method: RhLF (650 mg/kg and 65 mg/kg) and vehicle/placebo (rhLF diluent buffer pH 7.0) were administered orally once daily for 15 consecutive days to groups of 4 non-insulin dependent diabetic mellitus (NIDDM) male mice. […] All animals were allowed free access to normal laboratory chow and water. Blood samples were withdrawn from the orbital sinus immediately before dosing on day 1 (Day 1 Pre) and 90 minutes after the first administration on day 15 (Day 15 Post). The animals were fasted for 3 hours prior to sampling. Serum glucose levels were determined by enzymatic method (mutaratase-GOD). Four animals per cohort were studied. Reduction and p-value (1-tailed) were determined relative to placebo.
# [2] = tested on: non-insulin dependent diabetic mellitus (NIDDM) male mice (C57BLK/J-m+/Lepr db); experiment: Serum insulin (ELISA) after oral rhLF for 15 days in diabetic mice; details: 650 and 65 mg/kg orally once daily for 15 days, Day 15 Post, fasted 3 h
# Method: RhLF (650 and 65 mg/kg) and vehicle/placebo (rhLF diluent buffer pH 7.0) were administered orally once daily for 15 consecutive days to groups of 4 non-insulin dependent diabetic mellitus (NIDDM) male mice. […] All animals were allowed free access to normal laboratory chow and water. Blood samples were withdrawn from the orbital sinus immediately before dosing on day 1 (Day 1 Pre) and 90 minutes after the last administration on day 15 (Day 15 Post). The animals were fasted for 3 hours prior to sampling.
# [3] = tested on: non-insulin dependent diabetic mellitus (NIDDM) male mice (C57BLKS/J-m+/+Lepr db); experiment: Serum glucose and total body weight after oral rhLF for 20 days in diabetic mice; details: 65 mg/kg orally via gavage once per day for 20 days
# Method: Five groups of 6 non-insulin dependent diabetic mellitus (NIDDM) male mice (C57BLKS/J-m+/+Lepr db) weighing 50±grams and 9-10 weeks old were given either rhLF vehicle (Placebo), or RhLF (65 mg/kg) orally via gavage for 20 days (once per day) in a volume of 0.13 ml. Blood samples were obtained from the orbital sinus on day 0 and day 20 at 90 minutes following the last administration. Animals were fasted for 3 hours prior to sampling. Serum glucose levels were determined by enzymatic method (mutaratase-GOD). Total body weight measurements were determined on days 0 and 20. Percentage differences were determined with respect to pre-treatment values and analyzed statistically with the unpaired Student' t test. Differences were considered significant at p values of less than 0.05.
# [4] = tested on: non-insulin dependent diabetic mellitus (NIDDM) male mice (C57BLKS/J-m+/+Lepr db); experiment: Serum glucose after topical rhLF gel for 20 days in diabetic mice; details: RhLF gel (1%) topically, 0.2 mg per mouse once per day for 20 days onto a 12 mm punch excision; day 20; with respect to pre-treatment values
# Method: Two groups of 6 non-insulin dependent diabetic mellitus (NIDDM) male mice (C57BLKS/J-m+/+Lepr db) weighing 50+grams and 9-10 weeks old were given either rhLF vehicle (Placebo), or RhLF gel (1%) topically (0.2 mg per mouse/once per day) for 20 days applied directly onto a 12 mm punch excision. Blood samples were obtained from the orbital sinus on day 0 and day 20 at 90 minutes. The animals were fasted for 3 hours prior to sampling. Serum glucose levels were determined by enzymatic method (mutaratase-GOD). Percentage differences were determined with respect to pre-treatment values and analyzed statistically with the unpaired Student' t test. Differences were considered significant at p values of less than 0.05 (FIG. 4).
molecule,measurement,setting,value
B1,reduction in serum glucose,[1]; 65 mg/kg orally once daily for 15 days,14.6%
same,reduction in serum glucose,[1]; 650 mg/kg orally once daily for 15 days,19.0%
same,serum insulin levels,[2],increase
same,reduction in serum glucose,"[3]; day 20, 90 min after last administration, with respect to pre-treatment values",13.8%
same,reduction in body weight,[3]; day 20 vs day 0,7.7%
same,reduction of serum glucose,[4],10.9%
